We go through 2 molecules from paper PMC4155686, “Oleoyl Coenzyme A Regulates Interaction of Transcriptional Regulator RaaS (Rv1219c) with DNA in Mycobacteria*” (The Journal of Biological Chemistry, 2014).

The target of data set [1] is T1, RaaS wild type (Mycobacterium tuberculosis, UniProt O86312 1-212).
T1 sequence: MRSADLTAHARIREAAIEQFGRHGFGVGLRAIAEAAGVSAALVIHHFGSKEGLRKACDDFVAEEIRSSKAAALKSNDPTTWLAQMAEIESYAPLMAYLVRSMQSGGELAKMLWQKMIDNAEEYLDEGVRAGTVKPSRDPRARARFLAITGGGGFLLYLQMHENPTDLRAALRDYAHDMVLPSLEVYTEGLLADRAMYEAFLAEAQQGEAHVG
The data set is described as follows: fluorescence anisotropy; 4 nM DNA. The note with it: protein: recombinant; chain copies: 2. (Polarisation of emitted light reports the rotation of a fluorescent probe.)

Data set [2] concerns the molecule itself. The data set is described as follows: small-angle X-ray scattering; protein alone in solution at 1 and 3 mg/ml, data extrapolated to infinite dilution; apparent molecular mass from I(0).

B1: Pr14F/Pr14R (ATTO 647N) (dsDNA)
DNA 1: GGGATGAACGTACGTTTAATATCCTGAACATGCGTTCAG
DNA 2: GGGCTGAACGCATGTTCAGGATATTAAACGTACGTTCAT
In the case of B1, in data set [1], the Kd turned out to be 31 ± 6 nM.

B2: RaaS (regulator of antimicrobial-assisted survival), Rv1219c, wild type (natural protein)
chain: MRSADLTAHARIREAAIEQFGRHGFGVGLRAIAEAAGVSAALVIHHFGSKEGLRKACDDFVAEEIRSSKAAALKSNDPTTWLAQMAEIESYAPLMAYLVRSMQSGGELAKMLWQKMIDNAEEYLDEGVRAGTVKPSRDPRARARFLAITGGGGFLLYLQMHENPTDLRAALRDYAHDMVLPSLEVYTEGLLADRAMYEAFLAEAQQGEAHVG
notes: also called wild-type RaaS
As for B2, the “stoichiometry N” value in data set [2] was 2.

The Kd is the equilibrium constant for the complex coming apart. The stoichiometry N is a count of units in the complex or per binding partner.
